Measurements reported in patent US7294706.

Target: FGFR2 over-expressed on CHO cells (CHO-FGFR2) and on 32D cells (32D-FGFR2) (UniProt P21803)
Assay: competition of unlabeled protein with 125I-FGF4 (Gly79-Leu206) for CHO-FGFR2 cells, +heparin

IC50 mutant/IC50 wild-type (ratio (IC50 mutant/IC50 wild-type)): > 1000
Substance: FGF4 (Gly79-Leu206) N89A/K198A/K183A/K188A (from UniProt P08620 79-206) (ligand)
